# In patent US20200277405A1, “COMPOSITION FOR ANTIBODY-DRUG CONJUGATE DIRECTED AGAINST TUMOR-CELL ASSOCIATED POLYSIALIC ACID” (Cornell University, priority 2019, published 2020):
# Columns and labels:
# [1] = test system: chicken brain-derived polysialylated neural cell adhesion molecule (NCAM); experiment: ELISA with immobilized NCAM; type: binding
# Description: (§1) FIGS. 2A-2D depict binding specificity and affinity of the ch735 antibody. […] ELISA signals (Abs370) were obtained with anti-human IgG secondary antibodies. […] Antibodies were assayed at 1 μg/mL and detected with anti-human IgG secondary antibodies. […] Antibodies were assayed at 10 μg/mL and detected with anti-mouse IgG secondary antibodies.
# (§2) FIGS. 3A-3D depict binding specificity and affinity of mo735 antibody. […] ELISA signals (Abs370) were obtained with anti-mouse IgG secondary antibodies. […] Antibodies were assayed at 1 μg/mL and detected with anti-mouse IgG secondary antibodies. […] Antibodies were assayed at 10 μg/mL and detected with anti-mouse IgG secondary antibodies.
# Costar 96-well ELISA plates (Corning) were coated overnight at 4° C. with 50 μl of 1 μg/mL chicken brain NCAM (Millipore) or endoN-treated NCAM in PBS. Chicken NCAM (Millipore, AG265) was digested with 1.5 μg of endoN per 50 μg of NCAM overnight at 37° C. After blocking with 5% (w/v) milk in PBS for 1-3 h at room temperature or overnight at 4° C., ELISA plates were washed three times with wash buffer (PBST with 0.3% BSA) and incubated with serially diluted purified ch735, mo735 (Absolute Antibody), or ab5032 (Millipore) for 1 h at room temperature. Antibody samples were quantified with a Nanodrop. […]
# [2] = molecular target: polysialylated NCAM; experiment: SPR (Biacore) equilibrium binding to NCAM; set-up: species or system chicken; conditions: antibody on Protein A sensor chip; NCAM 0.25-250 nM; Hill slope analysis in Prism
# Description: FIGS. 5A-5D depict binding affinity analysis of mo735 and ch735 antibodies. Binding kinetics for the mo735 and ch735 antibodies were monitored using Biacore. Commercial mo735 or recombinant purified ch735 was immobilized at low concentrations on a Biacore Protein A sensor chip and the response to different concentrations of NCAM (ranging from 0.25-250 nM) was compared with an empty flow cell. FIGS. 5A-5B depicts representative sensorgram data for mo735 (FIG. 5A) and ch735 (FIG. 5B).
# Equilibrium binding-affinity measurements were made by SPR analysis on a Biacore 3000 system. Antibodies mo735 and ch735 were bound to the surface of a Protein A sensor chip with a target level of 1700 response units (RUs). Serial dilutions of the antigen, chicken NCAM, prepared in 10 mM HEPES, pH 7.4, 150 mM NaCl, 3 mM EDTA, 0.005% polysorbate-20 (HBS-EP buffer, GE Healthcare) at concentrations ranging from 0.25 to 250 nM were injected over the chip using the same buffer at a flow rate of 20 μl/min (10 min injection time, 2 min stabilization time, 20 min dissociation). The surface of the chip was regenerated between the injections of each serial dilution with 10 mM glycine, pH 1.5 (30 sec injection time, 3 min stabilization time). Kinetic parameters were determined by fitting the maximum response values for each concentration using the Hill slope non-linear regression analysis in Prism software.
# [3] = CFG glycan microarray specificity profiling; type: binding; conditions: for glycan specificity from microarrays: CFG glycan array (v5.3 mo735, v5.4 ch735) and glycoprotein array
# Description: as §1, §2
# Specificity of mo735 and ch735 was determined using printed glycan arrays 5.3 and 5.4 at the CFG. Both antibodies were analyzed at 10 μg/mL with 5 μg/mL of anti-mouse or anti-human Alexa-Fluor 647 (AF647)-conjugated secondary, respectively. Specificity of mo735 (1 μg/mL) and ch735 (10 μg/mL) was also assessed on a custom glycoprotein array that contained ˜40-50 glycoproteins including chicken brain NCAM and endoN-treated chicken brain NCAM.
# [4] = test system: polySia expressed on the surface of different cancer cell lines; experiment: Flow cytometric analysis of antibody binding to cancer cell lines; type: cell-based, human
# Excerpt: FIGS. 6A-6D depict immunostaining of antibody ch735 to polySia-expressing cancer cells. […] Data are the geometric mean fluorescence intensity (MFI), with the values reported as the average of three replicates and the error represented as the standard deviation of the mean. […] Cells were stained with ch735, wheat germ agglutinin (WGA) to stain the cell membrane, and Hoescht to stain nuclei. Scale bars, 10 μm. […] Scale bars, 200 μm.
# FIGS. 7A-7B depict binding of antibody ch735 and mo735 to polySia-expressing cancer cells. Representative fluorescence histograms for ch735 (FIG. 7A) and mo735 (FIG. 7B) binding to a panel of cancer cell lines measured by flow cytometry are shown. Histograms represent antibody binding to untreated cells, antibody binding to endoN-treated cells, and anti-human or anti-mouse secondary only control, respectively.
# FIGS. 9A-9B depict binding of antibody mo735 to polySia-expressing cancer cells. […] Data are the geometric mean fluorescence intensity (MFI), with the values reported as the average of three replicates and the error represented as the standard deviation of the mean. […] Cells were stained with ch735, wheat germ agglutinin (WGA), and nuclei were stained with Hoescht. Scale bars, 10 μm.
# Cancer cells were trypsinized and collected with media, followed by three washes in PBS. To remove polySia, cells were treated with endoN at 3 μg/mL in PBS for 1 h at room temperature. The cells are resuspended in 4% paraformaldehyde (PFA), fixed at room temperature with constant agitation for 10 min, and then washed two times with PBS, and two times with 0.5% BSA in PBS. The cells were collected and resuspended to 1 million cells/100 μL and pipetted into a round bottom 96-well plate. The cells were pelleted in the 96-well plate and resuspended in 0.5% BSA in PBS containing mo735 or ch735 (5 μg/mL) and incubated for 30 min at room temperature with constant agitation. Cells were washed three times with 0.5% BSA in PBS and resuspended in anti-mouse IgG-Alexa-Fluor 488 (AF488) secondary or anti-human IgG-AF488 secondary (ThermoFisher Scientific) at a 1:200 dilution for 30 min at room temperature in the dark with constant agitation. Cells were washed three times, resuspended in 500 μL of 0.5% BSA in PBS, and analyzed on a BD FACSCalibur flow cytometer using Cell Quest Pro software (BD Biosciences).
# [5] = CFG microarray version 5.4, 10 μg/mL
molecule,measurement,setting,value
"mo735: well-known mouse-derived IgG2a monoclonal antibody 735 targeting polysialic acid (antibody, V domains shown) VH: QIQLQQSGPELVRPGASVKISCKASGYTFTDYYIHWVKQRPGEGLEWIGWIYPGSGNTKYNEKFKGKATLTVDTSSSTAYMQLSSLTSEDSAVYFCARGGKFAMDYWGQGTSVTVSS VL: DVVMTQTPLSLPVSLGDQASISCRSSQSLVHSNGNTYLYWYLQKPGQSPKPLIYRVSNRFSGVPDRFSGSGSGTDFTLKISRVEAEDLGVYFCFQGTHVPYTFGGGTRLEIK",ELISA binding to NCAM,[1],specifically recognize polySia
same,Kd,[2],10.2 nM
same,glycan specificity from microarrays,[3],Nearly identical results
same,polySia binding on panel of cell lines compared with ch735,[4]; staining of each of the cell lines,Identical polySia binding results
"ch735: chimeric human IgG1 polySia-specific mAb made by swapping variable regions of mouse mAb 735 (antibody, V domains shown) VH: QIQLQQSGPELVRPGASVKISCKASGYTFTDYYIHWVKQRPGEGLEWIGWIYPGSGNTKYNEKFKGKATLTVDTSSSTAYMQLSSLTSEDSAVYFCARGGKFAMDYWGQGTSVTVSS VL: DVVMTQTPLSLPVSLGDQASISCRSSQSLVHSNGNTYLYWYLQKPGQSPKPLIYRVSNRFSGVPDRFSGSGSGTDFTLKISRVEAEDLGVYFCFQGTHVPYTFGGGTRLEIK",ELISA binding to NCAM,[1],specifically recognize polySia
same,Kd,[2],4.79 nM
same,glycan specificity from microarrays,[3],"α2,8-linked sialic acid with a degree of polymerization (DP) of three or greater"
same,glycan array binding to glycan Chart ID #224,[3]; [5],lesser but still significant level of binding above background
same,glycan array binding to glycans #225 and 226,[3]; [5],not
same,glycan array binding to tetra-sialic acid glycan Chart ID #223,[3]; [5],strong preference
same,surface binding by flow cytometry,[4]; A549 and MCF7 cells,No significant binding above background
same,surface binding by flow cytometry,"[4]; NCI-H69, NCI-H82 and SH-SY5Y cells",lower intensity
same,surface binding by flow cytometry,[4]; SKOV3 and K562 cells,not recognized
same,surface binding by flow cytometry,[4]; SW2 cells,bound most avidly
same,surface binding following endoN treatment,"[4]; polySia-positive cell lines, endoN-treated",lack of surface binding
